# T1: ADAAD T560A (Bos taurus (bovine), UniProt Q9TTA5 221-940, T780A)
# T1 sequence: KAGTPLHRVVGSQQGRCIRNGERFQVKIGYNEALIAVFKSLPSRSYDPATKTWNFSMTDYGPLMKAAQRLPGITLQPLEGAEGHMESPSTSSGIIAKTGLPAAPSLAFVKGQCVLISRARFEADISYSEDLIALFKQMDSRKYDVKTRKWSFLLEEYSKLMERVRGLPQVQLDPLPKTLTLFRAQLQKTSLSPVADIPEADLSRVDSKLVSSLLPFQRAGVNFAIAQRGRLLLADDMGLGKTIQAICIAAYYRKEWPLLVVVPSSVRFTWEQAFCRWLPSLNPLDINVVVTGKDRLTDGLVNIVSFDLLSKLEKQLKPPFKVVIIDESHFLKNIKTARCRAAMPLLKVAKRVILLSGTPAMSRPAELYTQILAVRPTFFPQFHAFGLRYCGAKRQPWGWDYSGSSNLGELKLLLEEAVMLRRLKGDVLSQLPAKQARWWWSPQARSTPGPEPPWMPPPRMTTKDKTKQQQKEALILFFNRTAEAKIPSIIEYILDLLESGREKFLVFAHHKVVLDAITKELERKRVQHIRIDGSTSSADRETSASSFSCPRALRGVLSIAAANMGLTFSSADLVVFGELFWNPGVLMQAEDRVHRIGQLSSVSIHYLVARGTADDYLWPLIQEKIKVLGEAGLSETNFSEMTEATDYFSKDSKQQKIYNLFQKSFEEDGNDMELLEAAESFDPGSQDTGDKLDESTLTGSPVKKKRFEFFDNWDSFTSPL
# Biological target: T1, ADAAD T560A
# Experiment: intrinsic tryptophan fluorescence titration; saturating ATP; Fluorescence titration (ex 295 nm, em 340 nm), one-site saturation fit; buffer, salt, pH and temperature not given in the material. Wild-type ADAAD Kd values are cited from ref 24 and not listed
# Conditions: protein: recombinant; tags: His (Ni-NTA, pET-14b); hairpin
binder,measurement,value
GCGCAATTGCGCTCGACGATTTTTTAGCGCAATTGCGC (structured_DNA) [slDNA (stem-loop DNA)],Kd,1.4 ± 0.3 nM
